Experimental data from US11427805B2, “Methods of producing human foregut endoderm cells expressing PDX1 from human definitive endoderm” (ViaCyte, Inc., priority 2005, dated 2022).

Tests used:
Type in all cases: cell-based, human
[1] = test system: SOX17 gene expression; assay: Q-PCR of SOX17 gene expression in differentiating hESCs
Procedure: (§1) In the following experiments, real-time quantitative RT-PCR (Q-PCR) was the primary assay used for screening the effects of various treatments on hESC differentiation. In particular, real-time measurements of gene expression were analyzed for multiple marker genes at multiple time points by Q-PCR. Marker genes characteristic of the desired as well as undesired cell types were evaluated to gain a better understanding of the overall dynamics of the cellular populations. The strength of Q-PCR analysis includes its extreme sensitivity and relative ease of developing the necessary markers, as the genome sequence is readily available. Furthermore, the extremely high sensitivity of Q-PCR permits detection of gene expression from a relatively small number of cells within a much larger population. In addition, the ability to detect very low levels of gene expression provides indications for “differentiation bias” within the population. The bias towards a particular differentiation pathway, prior to the overt differentiation of those cellular phenotypes, is unrecognizable using immunocytochemical techniques. […] Additionally, Q-PCR provides a mechanism by which to evaluate the success of a differentiation protocol in a quantitative format at semi-high throughput scales of analysis.
The approach taken here was to perform relative quantitation using SYBR Green chemistry on a Rotor Gene 3000 instrument (Corbett Research) and a two-step RT-PCR format. Such an approach allowed for the banking of cDNA samples for analysis of additional marker genes in the future, thus avoiding variability in the reverse transcription efficiency between samples.
To generate PCR template, total RNA was isolated using RNeasy (Qiagen) and quantitated using RiboGreen (Molecular Probes). Reverse transcription from 350-500 ng of total RNA was carried out using the iScript reverse transcriptase kit (BioRad), which contains a mix of oligo-dT and random primers. Each 20 μL reaction was subsequently diluted up to 100 μL total volume and 3 μL was used in each 10 μL Q-PCR reaction containing 400 nM forward and reverse primers and 5 μL 2×SYBR Green master mix (Qiagen). Two step cycling parameters were used employing a 5 second denature at 85-94° C. (specifically selected according to the melting temp of the amplicon for each primer set) followed by a 45 second anneal/extend at 60° C. Fluorescence data was collected during the last 15 seconds of each extension phase. A three point, 10-fold dilution series was used to generate the standard curve for each run and cycle thresholds (Ct's) were converted to quantitative values based on this standard curve. The quantitated values for each sample were normalized to housekeeping gene performance and then average and standard deviations were calculated for triplicate samples. At the conclusion of PCR cycling, a melt curve analysis was performed to ascertain the specificity of the reaction. A single specific product was indicated by a single peak at the Tm appropriate for that PCR amplicon.
A first step in establishing the Q-PCR methodology was validation of appropriate housekeeping genes (HGs) in the experimental system. […] We measured the expression levels of Cyclophilin G, hypoxanthine phosphoribosyltransferase 1 (HPRT), beta-2-microglobulin, hydroxymethylbiane synthase (HMBS), TATA-binding protein (TBP), and glucoronidase beta (GUS) in differentiating hESCs. […] We routinely used both Cyclophilin G and GUS to calculate a normalization factor for all samples. The use of multiple HGs simultaneously reduces the variability inherent to the normalization process and increases the reliability of the relative gene expression values.
We were the first to analyze and describe the effect of TGFβ family growth factors, such as Nodal/activin/BMP, for use in creating definitive endoderm cells from embryonic stem cells in in vitro cell cultures. […]

[2] = test system: AFP gene expression; assay: Q-PCR of AFP gene expression in differentiating hESCs
Procedure: as §1
To generate PCR template, total RNA was isolated using RNeasy (Qiagen) and quantitated using RiboGreen (Molecular Probes). Reverse transcription from 350-500 ng of total RNA was carried out using the iScript reverse transcriptase kit (BioRad), which contains a mix of oligo-dT and random primers. […] Fluorescence data was collected during the last 15 seconds of each extension phase. A three point, 10-fold dilution series was used to generate the standard curve for each run and cycle thresholds (Ct's) were converted to quantitative values based on this standard curve. The quantitated values for each sample were normalized to housekeeping gene performance and then average and standard deviations were calculated for triplicate samples. […]

[3] = test system: CXCR4 gene expression; assay: Q-PCR of CXCR4 gene expression in differentiating hESCs
Procedure: In these experiments, hESCs were differentiated by growing in RPMI medium (Invitrogen, Carlsbad, Calif.; cat #61870-036) supplemented with 0.5%, 2.0% or 10% FBS and either with or without 100 ng/ml activin A for 6 days. In addition, a gradient of FBS ranging from 0.5% to 2.0% over the first three days of differentiation was also used in conjunction with 100 ng/ml of activin A. After the 6 days, replicate samples were collected from each culture condition and analyzed for relative gene expression by real-time quantitative PCR. The remaining cells were fixed for immunofluorescent detection of SOX17 protein.
(§2) hESCs were differentiated in RPMI media supplemented with 0.5%-2% FBS (increased from 0.5% to 1.0% to 2.0% over the first 3 days of differentiation) and either 0, 10, or 100 ng/ml of activin A. After 7 days of differentiation the cells were dissociated in PBS without Ca^2+/Mg^2+ containing 2% FBS and 2 mM (EDTA) for 5 minutes at room temperature. The cells were filtered through 35 μm nylon filters, counted and pelleted. […] Cells were resuspended at 5×10^6 cells/ml in buffer and analyzed and sorted using a FACS Vantage (Beckton Dickenson) by the staff at the flow cytometry core facility (The Scripps Research Institute). Cells were collected directly into RLT lysis buffer (Qiagen) for subsequent isolation of total RNA for gene expression analysis by real-time quantitative PCR.

[4] = test system: hESCs; assay: CXCR4+ cell number by flow cytometry; conditions: 0, 10, or 100 ng/ml, 7 days (FIGS. 30A-C)
Procedure: as §2, with “pelleted. Pellets were resuspended in a small volume of 50% human serum/50% normal donkey serum and incubated for 2 minutes on ice to block non-specific antibody binding sites. To this, 1 μl of mouse anti-CXCR4 antibody (Abcam, cat # ab10403-100) was added per 50 μl (containing approximately 10^5 cells) and labeling proceeded for 45 minutes on ice. Cells were washed by adding 5 ml of PBS containing 2% human serum (buffer) and pelleted. A second wash with 5 ml of buffer was completed then cells were resuspended in 50 μl buffer per 10^5 cells.” for “pelleted.”

B1: activin A (protein, UniProt P08476 311-426, looked up)
Inhibin beta A chain: GLECDGKVNICCKKQFFVSFKDIGWNDWIIAPSGYHANYCEGECPSHIAGTSGSSLSFHSTVINHYRMRGHSPFANLKSCCVPTKLRPMSMLYYDDGQNIIKKDIQNMIVEECGCS
modifications: Inhibin beta A chain
- dose dependence of SOX17 gene expression ([1]; 0, 10, 30 or 100 ng/ml (FIG. 11)): dose-dependently increases SOX17 gene expression
- SOX17 induction compared to no factor medium controls ([1]; 4-day time point): 5 fold
- SOX17 gene expression relative to the undifferentiated control media (SR20) ([1]; FIG. 7A): increases SOX17 gene expression
- induction of SOX17 gene expression vs. undifferentiated hESCs ([1]; day 4 of differentiation / four days of exposure, activin A at 100 ng/ml, 10% serum medium (FIGS. 19, 21)): 19 fold
- difference in the level of SOX17 mRNA expression ([1]; hESCs treated with activin A vs retinoic acid (FIG. 7A)): 10 fold
- suppression of AFP gene expression in comparison to no treatment ([2]; FIG. 8A): 6.8 fold
- difference in AFP gene expression levels, activin A vs random differentiation in 10% FBS ([2]; FIG. 8A legend): approximately 7 fold
- expression of the visceral endoderm marker AFP ([2]; activin A dose series (FIG. 13A)): dose-dependent decrease
- relative levels of CXCR4 gene expression ([3]; 0, 10, or 100 ng/ml, 7 days (FIG. 32)): dramatically increased with increasing dose
- CXCR4 expression ([3]; 100 ng/ml (A100) vs no exogenous activin A (NF), 6 days (FIG. 26)): high
- number of CXCR4+ cells as determined by flow cytometry [4]: increase dramatically
